Source: patent US20120165265A1, “Calcium Signaling Modulators Involving STIM and ORAI Proteins” (priority 2009, published 2012)
“Also recorded” adds a separate entry of the source.

Experiments:
endogenous CRAC channels = experiment: NFAT-luciferase assay in HEK 293T (NFAT-Luc) cells; type: cell-based; conditions: HEK 293T NFAT-luc cells transfected with STIM1 construct; PMA (1 μM) alone; listed as D5
Description: NFAT-luciferase Assays. HEK 293T cells were co-transfected with the indicated constructs and an NFAT reporter gene (firefly luciferase gene C-terminal to 4×-NFAT site from the IL-2 gene). Cotransfection with the Renilla luciferase (pRLTK) gene driven by the TK promoter was used to control for cell number and transfection efficiency. After 12-18 h, cells were treated with a control DMSO solution (mock), PMA (1 μM), or PMA plus TG (1 μM) for 8 h. Assays were performed using the Dual Luciferase Reporter assay system (Promega). For each condition, luciferase activity was measured with 4 samples taken from duplicate wells using a 96-well automated luminometer (Turner Biosystems). Results are represented as the ratio of firefly to Renilla luciferase activity.
Identifying a Minimal Cytosolic Region of STIM1 that Opens the CRAC Channel. To identify the CRAC-activating domain of STIM1, we first tested a series of soluble cytosolic STIM1 fragments for their ability to activate an NFAT-dependent luciferase reporter gene (NFAT-luc). A series of constructs were generated by progressive truncation of the full-length cytosolic region of STIM1 (FIG. 2A; STIM1234-685; CT-STIM1) and were transiently expressed in a HEK 293T cell line containing NFAT-luc. […]

Orai1 [1] = biological target: T1, Orai1 (Homo sapiens, UniProt Q96D31); experiment: Yeast split ubiquitin interaction assay, CAD with Orai1; type: binding; conditions: NubG-Orai1 and CAD-Cub-LV in yeast
Description: Split-Ubiquitin Yeast Two Hybrid Assay. Screening was performed according to the manufacturer's instructions (Dualsystems Biotech). Transformed yeast were selected on media lacking Trp and Leu (-TL). Interaction was observed by cell growth on plates lacking Trp, Leu, and His (TLH) in the presence of 3-aminotriazole (3-AT). Protein interactions were also assessed by measuring lacZ activity using the chromogenic substrate X-gal (5-bromo-4-chloro-3-indolyl-β-galactopyranoside).
Split-Ubiquitin Yeast Two Hybrid Assay. To generate fusion proteins with the N-terminal half of ubiquitin (Nub), full-length or fragments of Orai1 were amplified by PCR and cloned into the pDL2-Nubx vector (Dualsystems Biotech). The Nub sequence in the pDL2-Nubx plasmid contains a point mutation (NubG) that abolishes the spontaneous association of Nub to the C-terminal half of ubiquitin (Cub). The CAD was subcloned into the pAMBV4 vector, which contains Cub fused to a chimeric transcription factor consisting of the DNA binding domain from LexA and the VP16 transactivation domain.
As a third test for association of CAD and Orai1 in vivo, and to map the interaction domains of Orai1 we introduced both proteins into a yeast split ubiquitin interaction system. […]

Orai1 [2] = biological target: T1, Orai1; experiment: Co-immunoprecipitation with Orai1 in HEK 293T cells; type: binding; set-up: expressed in transfected cells; host or cells: HEK 293; conditions: 150 mM salt, 1% Triton X-100
Description: Immunoprecipitation and Immunoblot Analysis. Transfected HEK 293T cells (12-24 h) were washed with PBS and lysed in 50 mM Tris-HCl pH 7.5, 150 mM NaCl, 1% Triton X-100, and protease inhibitors. Lysates were spun at 12,000 rpm for 10 min, and the supernatant was incubated with anti-Flag M2 agarose beads (Sigma), or anti-myc or -HA antibody followed by IgG agarose beads (Pierce). Lysates and immunoprecipitates were subjected to SDS-PAGE, probed with HRP-conjugated secondary antibody and detected by enhanced chemiluminescence (Pierce).
CAD Associates with Orai1 in vivo and in vitro. Because cytosolic CAD is a potent activator of Orai1 channels and is not associated with the ER, we hypothesized that CAD binds to Orai1. To test this idea, we first expressed YFP-CAD with or without myc-Orai1 in HEK 293 cells and examined its intracellular localization. […] To provide additional evidence that CAD and Orai1 are part of the same protein complex we expressed Flag-tagged CAD and GFP-tagged Orai1 in HEK 293T cells and immunoprecipitated CAD with anti-Flag antibodies. GFP-myc-Orai1 was detected in the immunoprecipitates from cells co-expressing CAD and Orai1 but not from cells expressing CAD or Orai1 alone (FIG. 3B).
Thus, CAD and Orai1 form a protein complex in mammalian cells.

T1 sequence (Q96D31 whole entry): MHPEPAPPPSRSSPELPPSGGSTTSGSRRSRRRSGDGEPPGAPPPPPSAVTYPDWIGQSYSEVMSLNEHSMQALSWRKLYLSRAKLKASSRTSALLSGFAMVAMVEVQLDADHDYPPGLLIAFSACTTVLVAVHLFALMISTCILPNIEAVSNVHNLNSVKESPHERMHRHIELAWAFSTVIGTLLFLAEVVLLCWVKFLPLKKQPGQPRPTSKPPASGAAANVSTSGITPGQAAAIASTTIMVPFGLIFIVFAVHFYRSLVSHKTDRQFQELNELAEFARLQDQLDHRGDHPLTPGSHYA

## CAD: 107-residue CRAC activation domain within the C-terminus of STIM1 (aa 342-448), SEQ ID NO:1
Endogenous CRAC channels
  activation of NFAT-dependent luciferase reporter gene (NFAT-luc): active; also recorded: necessary and sufficient to activate NFAT
Orai1 [1]
  interaction with Orai1 (growth on His selection, b-gal): interact with each other
Orai1 [2]
  co-immunoprecipitation with Orai1: co-immunoprecipitates with Orai1
